From patent US20200190220A1 (FRED HUTCHINSON CANCER RESEARCH CENTER, published 2020)
Where no end group is shown, it is not given here. [ ]: non-standard residue; d: D form. The star is where a group is joined. FITC = O=C1OC2(c3ccc(O)cc3Oc3cc(O)ccc32)c2ccc(NC(=S)*)cc21; pY = N[C@@H](Cc1ccc(OP(=O)(O)O)cc1)C(=O)O; Ahx = NCCCCCC(=O)O

Molecular target: T1, FITC-labeled peptide with the target sequence for the SH2 domain, EHIpYDEVAAD
T1 construct: also called N-Glu-His-Ile-pTyr-Asp-Glu-Val-Ala-Ala-Asp-C
T1 peptide: {FITC-Ahx}-EHI[pY]DEVAAD
Assay: fluorescence anisotropy of FITC-labeled peptide against rising protein concentration (FIG. 16D)
Source text: FIGS. 16A-16E. Functional (peptide-binding) characterization of dTor_12×31L_SH2_single (12× scaffold containing 1 SH2 domain). FIG. 16A: SDS-PAGE electrophoretic analysis of purified dTor_12×31L SH2_single (corresponding to a monomeric cTRP containing 12 repeats, interrupted within repeat #3 by an SH2 domain derived from the human Nck2 adapter protein). FIG. 16B: ribbon diagram of the design of dTor_12×31L SH2_single, visualized from the top and the side of the designed protein repeats. FIG. 16C: Size Exclusion Chromatographic (SEC) separation and analysis of purified dTor_12×31L_SH2_single. Hydrodynamic radii of purified constructs, measured using dynamic light scattering (DLS), is also indicated. FIG. 16D: Binding of peptide corresponding to sequence by dTor_12×31L_SH2_single. Binding measured by monitoring Fluorescence Anisotropy signal from a labeled peptide as a function of increasing protein concentration. […]
Determination of ligand binding using Fluorescence Polarization (FP): Each protein construct was 2-fold serially diluted into twelve concentrations, from 23 μM to 0.011 μM, using FP Buffer (20 mM HEPES+150 mM KCl at pH7.4). […] Background was subtracted from raw perpendicular and parallel fluorescence intensity, which were then converted to fluorescence polarization (mP) by the following equation: […]

B1: dTor_12×31L (non-functionalized, lacking any inserted SH2 domain) (designed binder)
chain: GSSMASGISVEELLKLAKAAYYSGTTVEEAYKLALKLGISVEELLKLAEAAYYSGTTVEEAYKLALKLGISVEELLKLAKAAYYSGTTVEEAYKLALKLGISVEELLKLAKAAYYSGTTVEEAYKLALKLGISVEELLKLAEAAYYSGTTVEEAYKLALKLGISVEELLKLAKAAYYSGTTVEEAYKLALKLGISVEELLKLAKAAYYSGTTVEEAYKLALKLGISVEELLKLAEAAYYSGTTVEEAYKLALKLGISVEELLKLAKAAYYSGTTVEEAYKLALKLGISVEELLKLAKAAYYSGTTVEEAYKLALKLGISVEELLKLAEAAYYSGTTVEEAYKLALKLGISVEELLKLAKAAYYSGTTVEEAYKLALKLG
B1: no binding.
